Marks after values point to notes of the source that are not given here.
Columns and labels:
[1] = tested on: patients with Stage IV NSCLC; test: Phase III study: safety, adverse events graded according to NCI CTCAE v4.0
[2] = tested on: patients with Stage IV NSCLC; details: in vivo
[3] = All treated patients, Chemo N = 263, Atezo N = 286
[4] = All treated patients, Chemo N = 263, Atezo N = 286, listed as atezolizumab

## atezolizumab
[1]; [3]
  AE leading to any treatment withdrawal, % of patients: (6.3%)
  AE leading to any treatment withdrawal, number of patients: 18
  All Deaths, % of patients: 43.7%
  All Deaths, number of patients: 125
  All Grade AE, any cause, % of patients: (90.2%)
  All Grade AE, any cause, number of patients: 258
  Cause of death: Adverse Event, % of patients: 3.8%
  Cause of death: Adverse Event, number of patients: 11
  Cause of death: Other, including deaths collected by public records, % of patients: 3.8%
  Cause of death: Other, including deaths collected by public records, number of patients: 11
  Cause of death: Progressive disease, % of patients: 36.0%
  Cause of death: Progressive disease, number of patients: 103
  Grade 3-4 AE, % of patients: (31.8%)
  Grade 3-4 AE, number of patients: 91
  Grade 5 AE, % of patients: (3.8%)
  Grade 5 AE, number of patients: 11
  Related AE (TRAE), % of patients: (60.5%)
  Related AE, number of patients: 173
  Serious Adverse Event, % of patients: (28.3%)
  Serious Adverse Event, number of patients: 81
  Treatment-Related SAE, % of patients: (8.4%)
  Treatment-Related SAE, number of patients: 24
  Treatment-related Grade 3-4 AE, % of patients: (12.9%)
  Treatment-related Grade 3-4 AE, number of patients: 37
  Treatment-related Grade 5 AE, number of patients: 0
[1]; [4]
  Related AE (TRAE), % of patients: 60.5%
  Treatment-related Grade 3-4 AE, % of patients: 12.9%
[1]; Atezo n = 286, Chemo n = 263
  Treatment-related AE Anemia, All Grades, %: (3.5) %
  Treatment-related AE Asthenia, All Grades, %: (7.3) %
  Treatment-related AE Asthenia, Grade 3-4, %: 0.3%
  Treatment-related AE Constipation, All Grades, %: (3.5) %
  Treatment-related AE Constipation, Grade 3-4, %: 0.3%
  Treatment-related AE Decreased appetite, All Grades, %: (7.0) %
  Treatment-related AE Decreased appetite, Grade 3-4, %: 0.7%
  Treatment-related AE Decreased white blood cell count, All Grades, %: (1.0) %
  Treatment-related AE Fatigue, All Grades, %: (7.7) %
  Treatment-related AE Fatigue, Grade 3-4, %: 0.7%
  Treatment-related AE Hyperkalemia, All Grades, %: (2.1) %
  Treatment-related AE Hyperkalemia, Grade 3-4, %: 1.0%
  Treatment-related AE Hyponatremia, All Grades, %: (1.7) %
  Treatment-related AE Hyponatremia, Grade 3-4, %: 1.0%
  Treatment-related AE Leukopenia, All Grades, %: (1.0) %
  Treatment-related AE Leukopenia, Grade 3-4, %: 0.3%
  Treatment-related AE Nausea, All Grades, %: (7.0) %
  Treatment-related AE Nausea, Grade 3-4, %: 0.3%
  Treatment-related AE Neutropenia, All Grades, %: (1.0) %
  Treatment-related AE Neutropenia, Grade 3-4, %: 0.7%
  Treatment-related AE Pancytopenia, All Grades, %: (0.3) %
  Treatment-related AE Pancytopenia, Grade 3-4, %: 0.3%
  Treatment-related AE Thrombocytopenia, All Grades, %: (1.7) %
  Treatment-related AE Thrombocytopenia, Grade 3-4, %: 0.3%
  Treatment-related AE Vomiting, All Grades, %: (1.4) %
  Treatment-related AE Vomiting, Grade 3-4, %: 0.3%
[1]; Chemo N = 263, Atezo N = 286
  Grade 5 AE: Acute myocardial infarction, %: 0.3%
  Grade 5 AE: Aspiration, %: 0.3%
  Grade 5 AE: COPD, %: 0.3%
  Grade 5 AE: Cardiac arrest, %: 0.3%
  Grade 5 AE: Cardiac disorders, %: 0.7%
  Grade 5 AE: Cerebral infarction, %: 0.3%
  Grade 5 AE: Death, %: 0.7%
  Grade 5 AE: Gastrointestinal disorders, %: 0.3%
  Grade 5 AE: General disorders and administration site conditions, %: 0.7%
  Grade 5 AE: Infections and infestations, %: 0.3%
  Grade 5 AE: Mechanical ileus, %: 0.3%
  Grade 5 AE: Nervous system disorders, %: 0.3%
  Grade 5 AE: Product issues, Device occlusion, %: 0.3%
  Grade 5 AE: Pulmonary embolism, %: 0.3%
  Grade 5 AE: Respiratory, thoracic and mediastinal disorders, %: 1.0%
  Grade 5 AE: Sepsis, %: 0.3%
  Grade 5 AE: Total number of patients: 11
  Grade 5 AE: Total, % of patients: 3.8%
[1]; safety population: 286 patients Arm A, 263 Arm B
  Safety profile compared to platinum-based chemotherapy (in words): favorable safety profile
[2]
  AESI Adrenal insufficiency Gr3-4, patients with event: 0
  AESI Adrenal insufficiency, patients with event: 2
  AESI Adrenal insufficiency, percent of patients: (0.7%)
  AESI Colitis Gr3-4, patients with event: 2
  AESI Colitis Gr3-4, percent of patients: (0.7%)
  AESI Colitis, patients with event: 3
  AESI Colitis, percent of patients: (1.0%)
  AESI Diabetes Mellitus Gr3-4, patients with event: 1
  AESI Diabetes Mellitus Gr3-4, percent of patients: (0.3%)
  AESI Diabetes Mellitus, patients with event: 2
  AESI Diabetes Mellitus, percent of patients: (0.7%)
  AESI Hepatitis Gr3-4, patients with event: 12
  AESI Hepatitis Gr3-4, percent of patients: (4.2%)*
  AESI Hepatitis, patients with event: 46
  AESI Hepatitis, percent of patients: (16.1%)
  AESI Hyperthyroidism Gr3-4, patients with event: 0
  AESI Hyperthyroidism, patients with event: 13
  AESI Hyperthyroidism, percent of patients: (4.5%)
  AESI Hypothyroidism Gr3-4, patients with event: 0
  AESI Hypothyroidism, patients with event: 27
  AESI Hypothyroidism, percent of patients: (9.4%)
  AESI Infusion-Related Reactions Gr3-4, patients with event: 0
  AESI Infusion-Related Reactions, patients with event: 4
  AESI Infusion-Related Reactions, percent of patients: (1.4%)
  AESI Myocarditis Gr3-4, patients with event: 1
  AESI Myocarditis Gr3-4, percent of patients: (0.3%)
  AESI Myocarditis, patients with event: 1
  AESI Myocarditis, percent of patients: (0.3%)
  AESI Myositis Gr3-4, patients with event: 0
  AESI Myositis, patients with event: 1
  AESI Myositis, percent of patients: (0.3%)
  AESI Nephritis Gr3-4, patients with event: 0
  AESI Nephritis, patients with event: 1
  AESI Nephritis, percent of patients: (0.3%)
  AESI Pneumonitis Gr3-4, patients with event: 2
  AESI Pneumonitis Gr3-4, percent of patients: (0.7%)
  AESI Pneumonitis, patients with event: 11
  AESI Pneumonitis, percent of patients: (3.8%)
  AESI Rash Gr3-4, patients with event: 3
  AESI Rash Gr3-4, percent of patients: (1.0%)
  AESI Rash, patients with event: 44
  AESI Rash, percent of patients: (15.4%)
  AESI Severe Cutaneous Adverse Reaction Gr3-4, patients with event: 0
  AESI Severe Cutaneous Adverse Reaction, patients with event: 2
  AESI Severe Cutaneous Adverse Reaction, percent of patients: (0.7%)
  AESI Vasculitis Gr3-4, patients with event: 1
  AESI Vasculitis Gr3-4, percent of patients: (0.3%)
  AESI Vasculitis, patients with event: 1
  AESI Vasculitis, percent of patients: (0.3%)
  Immune-mediated Adrenal insufficiency requiring systemic corticosteroids, %: (0.3) %
  Immune-mediated Diabetes mellitus requiring systemic corticosteroids, %: (0.3) %
  Immune-mediated Hypothyroidism requiring systemic corticosteroids, %: (0.3) %
  Immune-mediated Infusion-related reaction requiring systemic corticosteroids, %: (0.3) %
  Immune-mediated Nephritis requiring systemic corticosteroids, %: (0.3) %
